Measured values published in patent US20240209076A1 (KODIAK SCIENCES, published 2024).

target: human IL-6 (human, UniProt P05231 30-212); assay: SPR Biacore, supernatant, Protein A capture, 37 C
Procedure: Those four positions were selected based on their tolerance for mutations as observed in bacterial and mammalian screens. […] These cultures were centrifuged and supernatants containing secreted antibodies were harvested and diluted in HBS-EP+ running buffer (1:20 ratio).
Antibodies were captured on a Protein A chip (GE) by injecting 1:20 cell supernatant dilutions at 10 μL/min for 60 seconds. […] The sensor chip was regenerated by a 60 seconds injection of 10 mM Glycine pH 1.7 at the flow rate of 50 μL/min. […] For this setup, 1 μg/mL of purified antibody was injected over a Protein A chip at 10 μL/min for 25 seconds. […] The sensor chip was regenerated by a 60 seconds injection of 10 mM Glycine pH 1.7 at flow rate of 50 μL/min. Data analysis for supernatant and purified samples were performed using BIAevaluation software (GE). All sensorgrams were double reference subtracted and fit using a 1:1 Langmuir binding model.

human IL-6, sequence (P05231 30-212 limits assumed): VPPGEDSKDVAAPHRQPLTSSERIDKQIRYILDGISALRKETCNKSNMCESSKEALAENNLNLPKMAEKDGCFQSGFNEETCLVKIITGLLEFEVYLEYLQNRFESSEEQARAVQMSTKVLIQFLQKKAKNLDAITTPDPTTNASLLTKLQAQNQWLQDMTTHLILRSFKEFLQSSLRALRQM

Binder	Kd	koff	kon
Anti-IL-6 antibody, heavy chain S35H, G66D, Q99G / light chain WT (antibody, IgG1, V domains shown, IgG1; variable domains only) VH: EVQLVESGGGLVQPGGSLRLSCAASGFTFSPFAMHWVRQAPGKGLEWVAKISPGGSWTYYSDTVTDRFTFSLDTSKSTAYLQMNSLRAEDTAVYYCARGLWGYYALDIWGQGTLVTVSS VL: DIQLTQSPSSLSASVGDRVTITCSASISVSYMYWYQQKPGKAPKLLIYDMSNLASGVPSRFSGSGSGTDFTLTISSLQPEDFATYYCMQWSGYPYTFGQGTKVEIK	0.961 nM	0.0033 s⁻¹	3.43e+06 M⁻¹ s⁻¹
Anti-IL-6 antibody, heavy chain S35H, G66D, Q99K / light chain WT (antibody, IgG1, V domains shown, IgG1; variable domains only) VH: EVQLVESGGGLVQPGGSLRLSCAASGFTFSPFAMHWVRQAPGKGLEWVAKISPGGSWTYYSDTVTDRFTFSLDTSKSTAYLQMNSLRAEDTAVYYCARKLWGYYALDIWGQGTLVTVSS VL: DIQLTQSPSSLSASVGDRVTITCSASISVSYMYWYQQKPGKAPKLLIYDMSNLASGVPSRFSGSGSGTDFTLTISSLQPEDFATYYCMQWSGYPYTFGQGTKVEIK	15.1 nM	0.00333 s⁻¹	220000 M⁻¹ s⁻¹
Anti-IL-6 antibody, heavy chain S35H, G66D, Q99H / light chain M32L, M50D, N52S, M88Q (antibody, IgG1, V domains shown, IgG1; variable domains only; VL is variant III) VH: EVQLVESGGGLVQPGGSLRLSCAASGFTFSPFAMHWVRQAPGKGLEWVAKISPGGSWTYYSDTVTDRFTFSLDTSKSTAYLQMNSLRAEDTAVYYCARHLWGYYALDIWGQGTLVTVSS VL: DIQLTQSPSSLSASVGDRVTITCSASISVSYLYWYQQKPGKAPKLLIYDDSSLASGVPSRFSGSGSGTDFTLTISSLQPEDFATYYCQQWSGYPYTFGQGTKVEIK	5.52 nM	0.00441 s⁻¹	798000 M⁻¹ s⁻¹
Anti-IL-6 antibody, heavy chain S35H, G66D, Q99I / light chain M32L, M50D, N52S, M88Q (antibody, IgG1, V domains shown, IgG1; variable domains only; VL is variant III) VH: EVQLVESGGGLVQPGGSLRLSCAASGFTFSPFAMHWVRQAPGKGLEWVAKISPGGSWTYYSDTVTDRFTFSLDTSKSTAYLQMNSLRAEDTAVYYCARILWGYYALDIWGQGTLVTVSS VL: DIQLTQSPSSLSASVGDRVTITCSASISVSYLYWYQQKPGKAPKLLIYDDSSLASGVPSRFSGSGSGTDFTLTISSLQPEDFATYYCQQWSGYPYTFGQGTKVEIK	0.0381 nM	0.000206 s⁻¹	5.41e+06 M⁻¹ s⁻¹
Anti-IL-6 antibody, heavy chain S35H, G66D, Q99H / light chain WT (antibody, IgG1, V domains shown, IgG1; variable domains only) VH: EVQLVESGGGLVQPGGSLRLSCAASGFTFSPFAMHWVRQAPGKGLEWVAKISPGGSWTYYSDTVTDRFTFSLDTSKSTAYLQMNSLRAEDTAVYYCARHLWGYYALDIWGQGTLVTVSS VL: DIQLTQSPSSLSASVGDRVTITCSASISVSYMYWYQQKPGKAPKLLIYDMSNLASGVPSRFSGSGSGTDFTLTISSLQPEDFATYYCMQWSGYPYTFGQGTKVEIK	1.7 nM	0.00136 s⁻¹	802000 M⁻¹ s⁻¹
Anti-IL-6 antibody, heavy chain S35H, G66D, Q99L / light chain M32L, M50D, N52S, M88Q (antibody, IgG1, V domains shown, IgG1; variable domains only; VL is variant III) VH: EVQLVESGGGLVQPGGSLRLSCAASGFTFSPFAMHWVRQAPGKGLEWVAKISPGGSWTYYSDTVTDRFTFSLDTSKSTAYLQMNSLRAEDTAVYYCARLLWGYYALDIWGQGTLVTVSS VL: DIQLTQSPSSLSASVGDRVTITCSASISVSYLYWYQQKPGKAPKLLIYDDSSLASGVPSRFSGSGSGTDFTLTISSLQPEDFATYYCQQWSGYPYTFGQGTKVEIK	0.595 nM	0.000775 s⁻¹	1.3e+06 M⁻¹ s⁻¹
Anti-IL-6 antibody, heavy chain S35H, G66D, Q99K / light chain M32L, M50D, N52S, M88Q (antibody, IgG1, V domains shown, IgG1; variable domains only; VL is variant III) VH: EVQLVESGGGLVQPGGSLRLSCAASGFTFSPFAMHWVRQAPGKGLEWVAKISPGGSWTYYSDTVTDRFTFSLDTSKSTAYLQMNSLRAEDTAVYYCARKLWGYYALDIWGQGTLVTVSS VL: DIQLTQSPSSLSASVGDRVTITCSASISVSYLYWYQQKPGKAPKLLIYDDSSLASGVPSRFSGSGSGTDFTLTISSLQPEDFATYYCQQWSGYPYTFGQGTKVEIK	0.368 nM	0.00146 s⁻¹	3.97e+06 M⁻¹ s⁻¹
Anti-IL-6 antibody, heavy chain S35H, G66D, Q99I / light chain WT (antibody, IgG1, V domains shown, IgG1; variable domains only) VH: EVQLVESGGGLVQPGGSLRLSCAASGFTFSPFAMHWVRQAPGKGLEWVAKISPGGSWTYYSDTVTDRFTFSLDTSKSTAYLQMNSLRAEDTAVYYCARILWGYYALDIWGQGTLVTVSS VL: DIQLTQSPSSLSASVGDRVTITCSASISVSYMYWYQQKPGKAPKLLIYDMSNLASGVPSRFSGSGSGTDFTLTISSLQPEDFATYYCMQWSGYPYTFGQGTKVEIK	3.86 nM	0.00335 s⁻¹	868000 M⁻¹ s⁻¹

Next, values leading:

Kd	koff	kon	Binder
2.51 nM	0.00547 s⁻¹	2.17e+06 M⁻¹ s⁻¹	Anti-IL-6 antibody, heavy chain S35H, G66D, Q99Y / light chain M32L, M50D, N52S, M88Q (antibody, IgG1, V domains shown, IgG1; variable domains only; VL is variant III) VH: EVQLVESGGGLVQPGGSLRLSCAASGFTFSPFAMHWVRQAPGKGLEWVAKISPGGSWTYYSDTVTDRFTFSLDTSKSTAYLQMNSLRAEDTAVYYCARYLWGYYALDIWGQGTLVTVSS VL: DIQLTQSPSSLSASVGDRVTITCSASISVSYLYWYQQKPGKAPKLLIYDDSSLASGVPSRFSGSGSGTDFTLTISSLQPEDFATYYCQQWSGYPYTFGQGTKVEIK
7.66 nM	0.00154 s⁻¹	201000 M⁻¹ s⁻¹	Anti-IL-6 antibody, heavy chain S35H, G66D, Q99S / light chain M32L, M50D, N52S, M88Q (antibody, IgG1, V domains shown, IgG1; variable domains only; VL is variant III) VH: EVQLVESGGGLVQPGGSLRLSCAASGFTFSPFAMHWVRQAPGKGLEWVAKISPGGSWTYYSDTVTDRFTFSLDTSKSTAYLQMNSLRAEDTAVYYCARSLWGYYALDIWGQGTLVTVSS VL: DIQLTQSPSSLSASVGDRVTITCSASISVSYLYWYQQKPGKAPKLLIYDDSSLASGVPSRFSGSGSGTDFTLTISSLQPEDFATYYCQQWSGYPYTFGQGTKVEIK
11.4 nM	0.00161 s⁻¹	141000 M⁻¹ s⁻¹	Anti-IL-6 antibody, heavy chain S35H, G66D, Q99R / light chain WT (antibody, IgG1, V domains shown, IgG1; variable domains only) VH: EVQLVESGGGLVQPGGSLRLSCAASGFTFSPFAMHWVRQAPGKGLEWVAKISPGGSWTYYSDTVTDRFTFSLDTSKSTAYLQMNSLRAEDTAVYYCARRLWGYYALDIWGQGTLVTVSS VL: DIQLTQSPSSLSASVGDRVTITCSASISVSYMYWYQQKPGKAPKLLIYDMSNLASGVPSRFSGSGSGTDFTLTISSLQPEDFATYYCMQWSGYPYTFGQGTKVEIK
1.35 nM	0.00169 s⁻¹	1.25e+06 M⁻¹ s⁻¹	Anti-IL-6 antibody, heavy chain S35H, G66D, Q99P / light chain M32L, M50D, N52S, M88Q (antibody, IgG1, V domains shown, IgG1; variable domains only; VL is variant III) VH: EVQLVESGGGLVQPGGSLRLSCAASGFTFSPFAMHWVRQAPGKGLEWVAKISPGGSWTYYSDTVTDRFTFSLDTSKSTAYLQMNSLRAEDTAVYYCARPLWGYYALDIWGQGTLVTVSS VL: DIQLTQSPSSLSASVGDRVTITCSASISVSYLYWYQQKPGKAPKLLIYDDSSLASGVPSRFSGSGSGTDFTLTISSLQPEDFATYYCQQWSGYPYTFGQGTKVEIK
2.34 nM	0.000657 s⁻¹	280000 M⁻¹ s⁻¹	Anti-IL-6 antibody, heavy chain S35H, G66D, Q99R / light chain M32L, M50D, N52S, M88Q (antibody, IgG1, V domains shown, IgG1; variable domains only; VL is variant III) VH: EVQLVESGGGLVQPGGSLRLSCAASGFTFSPFAMHWVRQAPGKGLEWVAKISPGGSWTYYSDTVTDRFTFSLDTSKSTAYLQMNSLRAEDTAVYYCARRLWGYYALDIWGQGTLVTVSS VL: DIQLTQSPSSLSASVGDRVTITCSASISVSYLYWYQQKPGKAPKLLIYDDSSLASGVPSRFSGSGSGTDFTLTISSLQPEDFATYYCQQWSGYPYTFGQGTKVEIK
4.8 nM	0.00431 s⁻¹	898000 M⁻¹ s⁻¹	Anti-IL-6 antibody, heavy chain S35H, G66D, Q99V / light chain WT (antibody, IgG1, V domains shown, IgG1; variable domains only) VH: EVQLVESGGGLVQPGGSLRLSCAASGFTFSPFAMHWVRQAPGKGLEWVAKISPGGSWTYYSDTVTDRFTFSLDTSKSTAYLQMNSLRAEDTAVYYCARVLWGYYALDIWGQGTLVTVSS VL: DIQLTQSPSSLSASVGDRVTITCSASISVSYMYWYQQKPGKAPKLLIYDMSNLASGVPSRFSGSGSGTDFTLTISSLQPEDFATYYCMQWSGYPYTFGQGTKVEIK
6.48 nM	0.0257 s⁻¹	3.96e+06 M⁻¹ s⁻¹	Anti-IL-6 antibody, heavy chain S35H, G66D, Q99S / light chain WT (antibody, IgG1, V domains shown, IgG1; variable domains only) VH: EVQLVESGGGLVQPGGSLRLSCAASGFTFSPFAMHWVRQAPGKGLEWVAKISPGGSWTYYSDTVTDRFTFSLDTSKSTAYLQMNSLRAEDTAVYYCARSLWGYYALDIWGQGTLVTVSS VL: DIQLTQSPSSLSASVGDRVTITCSASISVSYMYWYQQKPGKAPKLLIYDMSNLASGVPSRFSGSGSGTDFTLTISSLQPEDFATYYCMQWSGYPYTFGQGTKVEIK
6.51 nM	0.049 s⁻¹	7.52e+06 M⁻¹ s⁻¹	Anti-IL-6 antibody, heavy chain S35H, G66D, Q99T / light chain M32L, M50D, N52S, M88Q (antibody, IgG1, V domains shown, IgG1; variable domains only; VL is variant III) VH: EVQLVESGGGLVQPGGSLRLSCAASGFTFSPFAMHWVRQAPGKGLEWVAKISPGGSWTYYSDTVTDRFTFSLDTSKSTAYLQMNSLRAEDTAVYYCARTLWGYYALDIWGQGTLVTVSS VL: DIQLTQSPSSLSASVGDRVTITCSASISVSYLYWYQQKPGKAPKLLIYDDSSLASGVPSRFSGSGSGTDFTLTISSLQPEDFATYYCQQWSGYPYTFGQGTKVEIK
1.31 nM	0.00222 s⁻¹	1.69e+06 M⁻¹ s⁻¹	Anti-IL-6 antibody, heavy chain S35H, G66D, Q99T / light chain WT (antibody, IgG1, V domains shown, IgG1; variable domains only) VH: EVQLVESGGGLVQPGGSLRLSCAASGFTFSPFAMHWVRQAPGKGLEWVAKISPGGSWTYYSDTVTDRFTFSLDTSKSTAYLQMNSLRAEDTAVYYCARTLWGYYALDIWGQGTLVTVSS VL: DIQLTQSPSSLSASVGDRVTITCSASISVSYMYWYQQKPGKAPKLLIYDMSNLASGVPSRFSGSGSGTDFTLTISSLQPEDFATYYCMQWSGYPYTFGQGTKVEIK
1.76 nM	0.0014 s⁻¹	794000 M⁻¹ s⁻¹	Anti-IL-6 antibody, heavy chain S35H, G66D, Q99V / light chain M32L, M50D, N52S, M88Q (antibody, IgG1, V domains shown, IgG1; variable domains only; VL is variant III) VH: EVQLVESGGGLVQPGGSLRLSCAASGFTFSPFAMHWVRQAPGKGLEWVAKISPGGSWTYYSDTVTDRFTFSLDTSKSTAYLQMNSLRAEDTAVYYCARVLWGYYALDIWGQGTLVTVSS VL: DIQLTQSPSSLSASVGDRVTITCSASISVSYLYWYQQKPGKAPKLLIYDDSSLASGVPSRFSGSGSGTDFTLTISSLQPEDFATYYCQQWSGYPYTFGQGTKVEIK
0.244 nM	0.000262 s⁻¹	1.07e+06 M⁻¹ s⁻¹	Anti-IL-6 antibody, heavy chain S35H, G66D, Q99L / light chain WT (antibody, IgG1, V domains shown, IgG1; variable domains only) VH: EVQLVESGGGLVQPGGSLRLSCAASGFTFSPFAMHWVRQAPGKGLEWVAKISPGGSWTYYSDTVTDRFTFSLDTSKSTAYLQMNSLRAEDTAVYYCARLLWGYYALDIWGQGTLVTVSS VL: DIQLTQSPSSLSASVGDRVTITCSASISVSYMYWYQQKPGKAPKLLIYDMSNLASGVPSRFSGSGSGTDFTLTISSLQPEDFATYYCMQWSGYPYTFGQGTKVEIK
